Experimental data published in paper PMC4810302 (The Journal of Cell Biology, 2016).
Where no end group is shown, it is not given here.

Biological target: His-G3BP1 (human, UniProt Q13283 1-466)
Assay: pull-down

Chain of His-G3BP1 (Q13283 whole entry): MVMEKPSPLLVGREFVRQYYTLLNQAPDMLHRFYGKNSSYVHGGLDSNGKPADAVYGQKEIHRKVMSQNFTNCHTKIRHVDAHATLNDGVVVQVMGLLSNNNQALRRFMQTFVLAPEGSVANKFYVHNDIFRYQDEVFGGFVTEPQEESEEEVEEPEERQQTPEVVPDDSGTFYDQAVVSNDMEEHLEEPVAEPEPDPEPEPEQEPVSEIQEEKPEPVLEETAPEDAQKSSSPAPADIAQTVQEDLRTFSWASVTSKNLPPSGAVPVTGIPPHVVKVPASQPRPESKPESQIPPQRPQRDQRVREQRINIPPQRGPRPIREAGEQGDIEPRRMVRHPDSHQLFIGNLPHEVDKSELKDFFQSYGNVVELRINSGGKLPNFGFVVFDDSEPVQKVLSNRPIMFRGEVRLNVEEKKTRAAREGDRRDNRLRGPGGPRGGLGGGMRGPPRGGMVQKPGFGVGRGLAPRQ

- binding result: binds
B1: USP10_(8–25)WT peptide (peptide)
peptide: YIFGDFSPDEFNQFFVTP-biotin
